Experiment [1] has as its target cyno IgE c(epsilon)2-c(epsilon)3-c(epsilon)4 Fc fragment with C-terminal (His)10 tag (cynomolgus monkey). Kind of experiment: Alphascreen, competition with HuFc(epsilon)RI(alpha)Fc for cyno IgE Fc.
Experiment [2] has the same target. The description is as above. This is another data set of the same source.

Where two headings read alike, the source gives them in different places.

cyno IgE c(epsilon)2-c(epsilon)3-c(epsilon)4 Fc fragment with C-terminal (His)10 tag (cynomolgus monkey), sequence (chain, as listed by the source): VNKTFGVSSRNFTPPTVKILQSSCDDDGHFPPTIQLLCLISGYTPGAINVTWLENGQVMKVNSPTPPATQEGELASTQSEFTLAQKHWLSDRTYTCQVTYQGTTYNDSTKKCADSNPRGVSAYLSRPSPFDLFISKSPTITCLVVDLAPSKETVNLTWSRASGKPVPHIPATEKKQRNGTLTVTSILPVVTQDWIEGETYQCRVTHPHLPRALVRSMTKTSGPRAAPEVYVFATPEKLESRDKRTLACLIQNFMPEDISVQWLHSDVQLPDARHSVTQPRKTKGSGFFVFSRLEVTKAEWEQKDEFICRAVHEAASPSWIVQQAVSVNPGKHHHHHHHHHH

Take “Fab obtained by papain digestion of commercially obtained omalizumab”: the % inhibition at 250 nM in experiment [1] turned out to be 99.3%; in experiment [2], 97.7%. Further, the half-inhibitory concentration (IC50) in experiment [1] was 1.39 nM; in experiment [2], 1.3 nM.

The record behind these values is patent WO2012175740A1.
